In US20120073001A1, “METHODS AND COMPOSITIONS FOR […] OR […] […]” (THE JOHNS HOPKINS UNIVERSITY, published 2012):

Biological target: T1, mouse MrgprC11, endogenous in wild-type DRG neurons (mouse)
T1 chain: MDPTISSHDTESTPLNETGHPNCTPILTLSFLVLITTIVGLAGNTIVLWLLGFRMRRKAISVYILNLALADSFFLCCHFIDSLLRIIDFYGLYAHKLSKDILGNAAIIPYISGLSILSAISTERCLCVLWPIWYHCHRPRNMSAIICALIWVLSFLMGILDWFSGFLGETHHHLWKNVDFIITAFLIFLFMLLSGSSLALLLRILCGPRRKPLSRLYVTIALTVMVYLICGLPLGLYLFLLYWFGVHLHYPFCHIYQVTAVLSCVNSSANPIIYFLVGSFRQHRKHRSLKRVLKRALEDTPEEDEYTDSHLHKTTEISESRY
Experiment: cell-based or functional assay

B1: BAM8-22 (peptide)
peptide: VGRPEWWMDYQKRYG
B1 was tested. Which “increased [Ca2+]i, calcium imaging of WT and Mrgpr-cluster deletion DRG neurons” value did it give?
The value was 3.6 % of WT DRG neurons.
